Test results from the MegaScale stability set (Tsuboyama et al. 2023).

B1: HEEH_KT_rd6_0007 (parent)
chain: SIEEEIKKAEEAKEKGKTFIHGDFVATTEELLDELLKRLRKKL

Variants of: B1
Experiment: folding stability dG (cDNA display proteolysis); higher = more stable
Details: PBS, room temperature

Variant | folding stability dG [kcal/mol]
SIEEEIKKAEEAKEKGKTFIHGDFVATTEELLDELLKRLRKDL [K42D] | 0.935
SIEEEIKKAEEAKEKGKTFIHGDFVATTEELLDELLKRLRKHL [K42H] | 1.1
SIEEEIKKAEEAKEKGKTFIHGDFVATTEELLDELLKRLRKAL [K42A] | 1.42
SIEEEIKKAEEAKEKGKTFIHGDFVATTEELLDELLKRLRKFL [K42F] | 1.38
SIEEEIKKAEEAKEKGKTFIHGDFVATTEELLDELLKRLRKGL [K42G] | 0.621
SIEEEIKKAEEAKEKGKTFIHGDFVATTEELLDELLKRLRKIL [K42I] | 1.59
SIEEEIKKAEEAKEKGKTFIHGDFVATTEELLDELLKRLRKEL [K42E] | 1.23
SIEEEIKKAEEAKEKGKTFIHGDFVATTEELLDELLTRLRKKL [K37T] | 1.26
SIEEEIKKAEEAKEKGKTFIHGDFVATTEELLDELLARLRKKL [K37A] | 1.5
SIEEEIKKAEEAKEKGKTFIHGDFVATTEELLDELLWRLRKKL [K37W] | 0.832
SIEEEIKKAEEAKEKGKTFIHGDFVATTEELLDELLCRLRKKL [K37C] | 2.06
SIEEEIKKAEEAKEKGKTFIHGDFVATTEELLDELLYRLRKKL [K37Y] | 0.938
SIEEEIKKAEEAKEKGKTFIHGDFVATTEELLDELLERLRKKL [K37E] | 1.25
SIEEEIKKAEEAKEKGKTFIHGDFVATTEELLDELLQRLRKKL [K37Q] | 1.37
SIEEEIKKAEEAKEKGKTFIHGDFVATTEELLDELLMRLRKKL [K37M] | 1.4
SIEEEIKKAEEAKEKGKTFIHGDFVATTEELLDELLLRLRKKL [K37L] | 1.51
SIEEEIKKAEEAKEKGKTFIHGDFVATTEELLDELLFRLRKKL [K37F] | 0.924
SIEEEIKKAEEAKEKGKTFIHGDFVATTEELLDELLPRLRKKL [K37P] | -0.465
SIEEEIKKAEEAKEKGKTFIHGDFVATTEELLDELLSRLRKKL [K37S] | 1.21
SIEEEIKKAEEAKEKGKTFIHGDFVATTEELLDELLNRLRKKL [K37N] | 1.17
SIEEEIKKAEEAKEKGKTFIHGDFVATTEELLDELLDRLRKKL [K37D] | 0.975
SIEEEIKKAEEAKEKGKTFIHGDFVATTEELLDELLVRLRKKL [K37V] | 1.05
SIEEEIKKAEEAKEKGKTFIHGDFVATTEELLDELLGRLRKKL [K37G] | 0.864
SIEEEIKKAEEAKEKGKTFIHGDFVATTEELLDELLRRLRKKL [K37R] | 1.68

Variant | folding stability dG [kcal/mol]
SIEEEIKKAEEAKEKGKTFIHGDFVATTEELLDELLIRLRKKL [K37I] | 1.15
SIEEEIKKAEEAKEKGKTFIHGDFVATTEELLDELLHRLRKKL [K37H] | 1.07
SIEEEIKKAEEAKEKGKTFIHGDFVATTEELLDELLKRLQKKL [R40Q] | 0.495
SIEEEIKKAEEAKEKGKTFIHGDFVATTEELLDELLKRLVKKL [R40V] | 0.699
SIEEEIKKAEEAKEKGKTFIHGDFVATTEELLDELLKRLTKKL [R40T] | 0.465
SIEEEIKKAEEAKEKGKTFIHGDFVATTEELLDELLKRLEKKL [R40E] | -0.182
SIEEEIKKAEEAKEKGKTFIHGDFVATTEELLDELLKRLSKKL [R40S] | 0.38
SIEEEIKKAEEAKEKGKTFIHGDFVATTEELLDELLKRLIKKL [R40I] | 0.776
SIEEEIKKAEEAKEKGKTFIHGDFVATTEELLDELLKRLPKKL [R40P] | -0.336
SIEEEIKKAEEAKEKGKTFIHGDFVATTEELLDELLKRLMKKL [R40M] | 0.877
SIEEEIKKAEEAKEKGKTFIHGDFVATTEELLDELLKRLHKKL [R40H] | 0.662
SIEEEIKKAEEAKEKGKTFIHGDFVATTEELLDELLKRLGKKL [R40G] | 0.155
SIEEEIKKAEEAKEKGKTFIHGDFVATTEELLDELLKRLDKKL [R40D] | -0.199
SIEEEIKKAEEAKEKGKTFIHGDFVATTEELLDELLKRLKKKL [R40K] | 0.773
SIEEEIKKAEEAKEKGKTFIHGDFVATTEELLDELLKRLCKKL [R40C] | 1.31
SIEEEIKKAEEAKEKGKTFIHGDFVATTEELLDELLKRLWKKL [R40W] | 1.23
SIEEEIKKAEEAKEKGKTFIHGDFVATTEELLDELLKRLFKKL [R40F] | 1.1
SIEEEIKKAEEAKEKGKTFIHGDFVATTEELLDELLKRLLKKL [R40L] | 1.02
SIEEEIKKAEEAKEKGKTFIHGDFVATTEELLDELLKRLNKKL [R40N] | 0.359
SIEEEIKKAEEAKEKGKTFIHGDFVATTEELLDELLKRLYKKL [R40Y] | 1.69
SIEEEIKKAEEAKEKGKTFIHGDFVATTEELLDELLKRLAKKL [R40A] | 0.53
SIEEEIKKAEEAKEKGKTFIHGDFVATTEELLDELLKRLRTKL [K41T] | 1.04
SIEEEIKKAEEAKEKGKTFIHGDFVATTEELLDELLKRLRIKL [K41I] | 1.2
SIEEEIKKAEEAKEKGKTFIHGDFVATTEELLDELLKRLRSKL [K41S] | 1.12

Variant | folding stability dG [kcal/mol]
SIEEEIKKAEEAKEKGKTFIHGDFVATTEELLDELLKRLRYKL [K41Y] | 0.949
SIEEEIKKAEEAKEKGKTFIHGDFVATTEELLDELLKRLRWKL [K41W] | 1.08
SIEEEIKKAEEAKEKGKTFIHGDFVATTEELLDELLKRLRPKL [K41P] | 0.057
SIEEEIKKAEEAKEKGKTFIHGDFVATTEELLDELLKRLRVKL [K41V] | 1.07
SIEEEIKKAEEAKEKGKTFIHGDFVATTEELLDELLKRLREKL [K41E] | 1.19
SIEEEIKKAEEAKEKGKTFIHGDFVATTEELLDELLKRLRMKL [K41M] | 1.38
SIEEEIKKAEEAKEKGKTFIHGDFVATTEELLDELLKRLRQKL [K41Q] | 1.41
SIEEEIKKAEEAKEKGKTFIHGDFVATTEELLDELLKRLRRKL [K41R] | 1.54
SIEEEIKKAEEAKEKGKTFIHGDFVATTEELLDELLKRLRLKL [K41L] | 1.42
SIEEEIKKAEEAKEKGKTFIHGDFVATTEELLDELLKRLRNKL [K41N] | 1.11
SIEEEIKKAEEAKEKGKTFIHGDFVATTEELLDELLKRLRDKL [K41D] | 1.1
SIEEEIKKAEEAKEKGKTFIHGDFVATTEELLDELLKRLRFKL [K41F] | 0.949
SIEEEIKKAEEAKEKGKTFIHGDFVATTEELLDELLKRLRGKL [K41G] | 0.924
SIEEEIKKAEEAKEKGKTFIHGDFVATTEELLDELLKRLRHKL [K41H] | 1.15
SIEEEIKKAEEAKEKGKTFIHGDFVATTEELLDELLKRLRAKL [K41A] | 1.57
SIEEEIKKAEEAKEKGKTFIHGDFVATTEELLDEWLKRLRKKL [L35W] | 0.882
SIEEEIKKAEEAKEKGKTFIHGDFVATTEELLDEYLKRLRKKL [L35Y] | 0.817
SIEEEIKKAEEAKEKGKTFIHGDFVATTEELLDELLKRGRKKL [L39G] | -0.429
SIEEEIKKAEEAKEKGKTFIHGDFVATTEELLDELLKRSRKKL [L39S] | 0.093
SIEEEIKKAEEAKEKGKTFIHGDFVATTEELLDELLKRPRKKL [L39P] | -0.251
SIEEEIKKAEEAKEKGKTFIHGDFVATTEELLDELLKRNRKKL [L39N] | 0.087
SIEEEIKKAEEAKEKGKTFIHGDFVATTEELLDELLKRHRKKL [L39H] | 0.059
SIEEEIKKAEEAKEKGKTFIHGDFVATTEELLDELLKRVRKKL [L39V] | 0.079
SIEEEIKKAEEAKEKGKTFIHGDFVATTEELLDELLKRMRKKL [L39M] | 0.977

Variant | folding stability dG [kcal/mol]
SIEEEIKKAEEAKEKGKTFIHGDFVATTEELLDELLKRQRKKL [L39Q] | -0.059
SIEEEIKKAEEAKEKGKTFIHGDFVATTEELLDELLKRKRKKL [L39K] | 0.102
SIEEEIKKAEEAKEKGKTFIHGDFVATTEELLDELLKRERKKL [L39E] | -0.449
SIEEEIKKAEEAKEKGKTFIHGDFVATTEELLDELLKRYRKKL [L39Y] | 0.697
SIEEEIKKAEEAKEKGKTFIHGDFVATTEELLDELLKRFRKKL [L39F] | 0.806
SIEEEIKKAEEAKEKGKTFIHGDFVATTEELLDELLKRWRKKL [L39W] | 0.902
SIEEEIKKAEEAKEKGKTFIHGDFVATTEELLDELLKRIRKKL [L39I] | 0.845
SIEEEIKKAEEAKEKGKTFIHGDFVATTEELLDELLKRRRKKL [L39R] | 0.516
SIEEEIKKAEEAKEKGKTFIHGDFVATTEELLDELLKRTRKKL [L39T] | -0.05
SIEEEIKKAEEAKEKGKTFIHGDFVATTEELLDELLKRARKKL [L39A] | 0.168
SIEEEIKKAEEAKEKGKTFIHGDFVATTEELLDELLKTLRKKL [R38T] | 1.15
SIEEEIKKAEEAKEKGKTFIHGDFVATTEELLDELLKELRKKL [R38E] | 0.927
SIEEEIKKAEEAKEKGKTFIHGDFVATTEELLDELLKLLRKKL [R38L] | 1.94
SIEEEIKKAEEAKEKGKTFIHGDFVATTEELLDELLKNLRKKL [R38N] | 0.87
SIEEEIKKAEEAKEKGKTFIHGDFVATTEELLDELLKSLRKKL [R38S] | 0.842
SIEEEIKKAEEAKEKGKTFIHGDFVATTEELLDELLKPLRKKL [R38P] | -0.239
SIEEEIKKAEEAKEKGKTFIHGDFVATTEELLDELLKGLRKKL [R38G] | 0.522
SIEEEIKKAEEAKEKGKTFIHGDFVATTEELLDELLKHLRKKL [R38H] | 1.6
SIEEEIKKAEEAKEKGKTFIHGDFVATTEELLDELLKQLRKKL [R38Q] | 1.23
SIEEEIKKAEEAKEKGKTFIHGDFVATTEELLDELLKALRKKL [R38A] | 1.37
SIEEEIKKAEEAKEKGKTFIHGDFVATTEELLDELLKFLRKKL [R38F] | 1.83
SIEEEIKKAEEAKEKGKTFIHGDFVATTEELLDELLKDLRKKL [R38D] | 0.493
SIEEEIKKAEEAKEKGKTFIHGDFVATTEELLDELLKVLRKKL [R38V] | 1.37
SIEEEIKKAEEAKEKGKTFIHGDFVATTEELLDELLKMLRKKL [R38M] | 1.9

Variant | folding stability dG [kcal/mol]
SIEEEIKKAEEAKEKGKTFIHGDFVATTEELLDELLKWLRKKL [R38W] | 2
SIEEEIKKAEEAKEKGKTFIHGDFVATTEELLDELLKKLRKKL [R38K] | 1.02
SIEEEIKKAEEAKEKGKTFIHGDFVATTEELLDELLKYLRKKL [R38Y] | 2.01
SIEEEIKKAEEAKEKGKTFIHGDFVATTEELLDELLKILRKKL [R38I] | 1.73
SIEEEIKKAEEAKEKGKTFIHGDFVATTEELLDELRKRLRKKL [L36R] | 0.531
SIEEEIKKAEEAKEKGKTFIHGDFVATTEELLDELYKRLRKKL [L36Y] | 0.652
SIEEEIKKAEEAKEKGKTFIHGDFVATTEELLDELIKRLRKKL [L36I] | 1.62
SIEEEIKKAEEAKEKGKTFIHGDFVATTEELLDELNKRLRKKL [L36N] | 0.046
SIEEEIKKAEEAKEKGKTFIHGDFVATTEELLDELDKRLRKKL [L36D] | -0.448
SIEEEIKKAEEAKEKGKTFIHGDFVATTEELLDELEKRLRKKL [L36E] | -0.06
SIEEEIKKAEEAKEKGKTFIHGDFVATTEELLDELVKRLRKKL [L36V] | 0.838
SIEEEIKKAEEAKEKGKTFIHGDFVATTEELLDELKKRLRKKL [L36K] | -0.007
SIEEEIKKAEEAKEKGKTFIHGDFVATTEELLDELFKRLRKKL [L36F] | 0.757
SIEEEIKKAEEAKEKGKTFIHGDFVATTEELLDELPKRLRKKL [L36P] | -0.108
SIEEEIKKAEEAKEKGKTFIHGDFVATTEELLDELWKRLRKKL [L36W] | 0.856
SIEEEIKKAEEAKEKGKTFIHGDFVATTEELLDELHKRLRKKL [L36H] | 0.249
SIEEEIKKAEEAKEKGKTFIHGDFVATTEELLDELTKRLRKKL [L36T] | 0.179
SIEEEIKKAEEAKEKGKTFIHGDFVATTEELLDELGKRLRKKL [L36G] | 0.032
SIEEEIKKAEEAKEKGKTFIHGDFVATTEELLDELAKRLRKKL [L36A] | 0.394
SIEEEIKKAEEAKEKGKTFIHGDFVATTEELLDELSKRLRKKL [L36S] | 0.185
SIEEEIKKAEEAKEKGKTFIHGDFVATTEELLDELQKRLRKKL [L36Q] | 0.304
SIEEEIKKAEEAKEKGKTFIHGDFVATTEELLDELMKRLRKKL [L36M] | 0.68
